Experimental data published in patent publication US20040229241A1, “Cloned mammalian polyamine oxidase” (priority 2001, published 2004).

Key:
[1] = substrate: NCCCNCCCCNCCCN; experiment: cells, lysate or membranes named; settings: other: named compound as substrate, Lineweaver-Burk; 37.0 °C
[2] = substrate: NCCCNCCCCNCCCN; experiment: PAO activity of in vitro TnT (wheat germ) produced PAOh1, fluorescent H2O2 assay; format: biochemical, human; settings: other: Lineweaver/Burke transformation; pH 9.0; 37.0 °C
Method: In Vitro Transcription and Translation. In vitro transcription and translation reactions were performed with the TnT-coupled wheat germ extract system. Parallel reactions were prepared by adding an unlabeled amino acid mixture to one reaction and a [^35S]methionine containing amino acid mixture to the other, according to the supplied protocol. Vector pcDNA3.1 and pPAOh1 were linearized by SalI restriction and served as the templates. The labeled translation reactions products were separated by 10% SDS-PAGE, and radioactivity on the labeled PAO band was determined by Phosphor image analysis using Image Quant software (Molecular Dynamics, Sunnyvale, Calif.).
Determination of PAO Enzyme Activity. The cultured H157 cells with or without treatment of 10 μM N^1, N″-bis(ethyl)norspermine (BENSpm) were homogenized with a Dounce tissue homogenizer in ice-cold 0.083 M sodium borate buffer (pH 9.0). […] The enzyme activity was stopped by the addition of 2.0 ml of 0.1 M NaOH solution. The fluorescence intensity was measured with excitation at 323 nm and emission at 426 nm. […] Protein content of the cellular homogenate was determined using the Bio-Rad protein assay kit (Bio-Rad). […] For determination of PAO activity in the product of the unlabeled TnT reaction, 10 μl of TnT reaction were used in the place of the homogenate. […]

B1: purified recombinant human PAOh1/SMO (Homo sapiens) (protein)
chain: MQSCESSGDSADDPLSRGLRRRGQPRVVVIGAGLAGLAAAKALLEQGFTDVTVLEASSHIGGRVQSVKLGHATFELGATWIHGSHGNPIYHLAEANGLLEETTDGERSVGRISLYSKNGVACYLTNHGRRIPKDVVEEFSDLYNEVYNLTQEFFRHDKPVNAESQNSVGVFTREEVRNRIRNDPDDPEATKRLKLAMIQQYLKVESCESSSHSMDEVSLSAFGEWTEIPGAHHIIPSGFMRVVELLAEGIPAHVIQLGKPVRCIHWDQASARPRGPEIEPRGEGDHNHDTGEGGQGGEEPRGGRWDEDEQWSVVVECEDCELIPADHVIVTVSLGVLKRQYTSFFRPGLPTEKVAAIHRLGIGTTDKIFLEFEEPFWGPECNSLQFVWEDEAESHTLTYPPELWYRKICGFDVLYPPERYGHVLSGWICGEEALVMEKCDDEAVAEICTEMLRQFTGNPNIPKPRRILRSAWGSNPYFRGSYSYTQVGSSGADVEKLAKPLPYTESSKTAPMQVLFSGEATHRKYYSTTHGALLSGQREAARLIEMYRDLFQQGT
- Km [1]: 1.63 µM
- Vmax [1]: 7.72 μmol/mg protein/min

B2: human PAOh1 (Homo sapiens) (protein)
chain: MQSCESSGDSADDPLSRGLRRRGQPRVVVIGAGLAGLAAAKALLEQGFTDVTVLEASSHIGGRVQSVKLGHATFELGATWIHGSHGNPIYHLAEANGLLEETTDGERSVGRISLYSKNGVACYLTNHGRRIPKDVVEEFSDLYNEVYNLTQEFFRHDKPVNAESQNSVGVFTREEVRNRIRNDPDDPEATKRLKLAMIQQYLKVESCESSSHSMDEVSLSAFGEWTEIPGAHHIIPSGFMRVVELLAEGIPAHVIQLGKPVRCIHWDQASARPRGPEIEPRGEGDHNHDTGEGGQGGEEPRGGRWDEDEQWSVVVECEDCELIPADHVIVTVSLGVLKRQYTSFFRPGLPTEKVAAIHRLGIGTTDKIFLEFEEPFWGPECNSLQFVWEDEAESHTLTYPPELWYRKICGFDVLYPPERYGHVLSGWICGEEALVMEKCDDEAVAEICTEMLRQFTGNPNIPKPRRILRSAWGSNPYFRGSYSYTQVGSSGADVEKLAKPLPYTESSKTAPMQVLFSGEATHRKYYSTTHGALLSGQREAARLIEMYRDLFQQGT
notes: made in house; host or cells: TnT-coupled wheat germ extract (Promega), template pPAOh1 (pcDNA3.1)
- Km [2]: 18 µM
